Laboratory results reported in patent US20230002496A1 (STAIDSON BEIJING BIOPHARMACEUTICALS, published 2023).

T1: human GM-CSFRα, full length on cells (human, UniProt P15509 23-400)
T1 sequence: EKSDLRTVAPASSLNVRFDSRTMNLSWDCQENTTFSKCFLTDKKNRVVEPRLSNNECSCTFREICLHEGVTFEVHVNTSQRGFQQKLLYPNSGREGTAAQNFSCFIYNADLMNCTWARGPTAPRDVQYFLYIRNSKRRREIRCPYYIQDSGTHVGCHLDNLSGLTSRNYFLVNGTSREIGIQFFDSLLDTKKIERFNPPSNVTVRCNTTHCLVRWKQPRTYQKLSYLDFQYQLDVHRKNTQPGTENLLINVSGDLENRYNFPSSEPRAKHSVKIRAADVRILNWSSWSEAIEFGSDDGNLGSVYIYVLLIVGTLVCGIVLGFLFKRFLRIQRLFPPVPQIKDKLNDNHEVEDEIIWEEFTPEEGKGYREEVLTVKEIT


Target: T1, human GM-CSFRα, full length on cells
Experiment: cell-based or functional assay

Binder	IC50, TF-1 cell proliferation [mg/L]
E35-scFv LS52T (scFv, V domains shown) VH: QMQLVQSGAEVKKPGASVKVSCKVSGYTLTELSIHWVRQAPGKGLEWMGGFDPEDGETIYAQKFQGRVTMTGDTSTDTAYLELSSLRSEDTALYYCATGRYTSLATTYGFDYWGQGTLVTVSS VL: EIVMTQSPATLSLSPGERATLSCRASQSVSSYLAWYQQKPGQAPRLLIYGATSRATGIPDRFSGSGSGTDFTLTISRLEPEDFAVYYCQQYDNWPYTFGQGTKLEIK	0.136
E35-scFv LS52L (scFv, V domains shown) VH: QMQLVQSGAEVKKPGASVKVSCKVSGYTLTELSIHWVRQAPGKGLEWMGGFDPEDGETIYAQKFQGRVTMTGDTSTDTAYLELSSLRSEDTALYYCATGRYTSLATTYGFDYWGQGTLVTVSS VL: EIVMTQSPATLSLSPGERATLSCRASQSVSSYLAWYQQKPGQAPRLLIYGALSRATGIPDRFSGSGSGTDFTLTISRLEPEDFAVYYCQQYDNWPYTFGQGTKLEIK	0.115
E35-scFv LS52W (scFv, V domains shown) VH: QMQLVQSGAEVKKPGASVKVSCKVSGYTLTELSIHWVRQAPGKGLEWMGGFDPEDGETIYAQKFQGRVTMTGDTSTDTAYLELSSLRSEDTALYYCATGRYTSLATTYGFDYWGQGTLVTVSS VL: EIVMTQSPATLSLSPGERATLSCRASQSVSSYLAWYQQKPGQAPRLLIYGAWSRATGIPDRFSGSGSGTDFTLTISRLEPEDFAVYYCQQYDNWPYTFGQGTKLEIK	0.073
E35-scFv LY32A (scFv, V domains shown) VH: QMQLVQSGAEVKKPGASVKVSCKVSGYTLTELSIHWVRQAPGKGLEWMGGFDPEDGETIYAQKFQGRVTMTGDTSTDTAYLELSSLRSEDTALYYCATGRYTSLATTYGFDYWGQGTLVTVSS VL: EIVMTQSPATLSLSPGERATLSCRASQSVSSALAWYQQKPGQAPRLLIYGASSRATGIPDRFSGSGSGTDFTLTISRLEPEDFAVYYCQQYDNWPYTFGQGTKLEIK	1.35
E35-scFv LS52R (scFv, V domains shown) VH: QMQLVQSGAEVKKPGASVKVSCKVSGYTLTELSIHWVRQAPGKGLEWMGGFDPEDGETIYAQKFQGRVTMTGDTSTDTAYLELSSLRSEDTALYYCATGRYTSLATTYGFDYWGQGTLVTVSS VL: EIVMTQSPATLSLSPGERATLSCRASQSVSSYLAWYQQKPGQAPRLLIYGARSRATGIPDRFSGSGSGTDFTLTISRLEPEDFAVYYCQQYDNWPYTFGQGTKLEIK	0.089
E35-scFv LS52A (scFv, V domains shown) VH: QMQLVQSGAEVKKPGASVKVSCKVSGYTLTELSIHWVRQAPGKGLEWMGGFDPEDGETIYAQKFQGRVTMTGDTSTDTAYLELSSLRSEDTALYYCATGRYTSLATTYGFDYWGQGTLVTVSS VL: EIVMTQSPATLSLSPGERATLSCRASQSVSSYLAWYQQKPGQAPRLLIYGAASRATGIPDRFSGSGSGTDFTLTISRLEPEDFAVYYCQQYDNWPYTFGQGTKLEIK	0.068
E35-scFv LS52Q (scFv, V domains shown) VH: QMQLVQSGAEVKKPGASVKVSCKVSGYTLTELSIHWVRQAPGKGLEWMGGFDPEDGETIYAQKFQGRVTMTGDTSTDTAYLELSSLRSEDTALYYCATGRYTSLATTYGFDYWGQGTLVTVSS VL: EIVMTQSPATLSLSPGERATLSCRASQSVSSYLAWYQQKPGQAPRLLIYGAQSRATGIPDRFSGSGSGTDFTLTISRLEPEDFAVYYCQQYDNWPYTFGQGTKLEIK	0.138
E35-scFv LY32C (scFv, V domains shown) VH: QMQLVQSGAEVKKPGASVKVSCKVSGYTLTELSIHWVRQAPGKGLEWMGGFDPEDGETIYAQKFQGRVTMTGDTSTDTAYLELSSLRSEDTALYYCATGRYTSLATTYGFDYWGQGTLVTVSS VL: EIVMTQSPATLSLSPGERATLSCRASQSVSSCLAWYQQKPGQAPRLLIYGASSRATGIPDRFSGSGSGTDFTLTISRLEPEDFAVYYCQQYDNWPYTFGQGTKLEIK	1.9
E35-scFv LY32E (scFv, V domains shown) VH: QMQLVQSGAEVKKPGASVKVSCKVSGYTLTELSIHWVRQAPGKGLEWMGGFDPEDGETIYAQKFQGRVTMTGDTSTDTAYLELSSLRSEDTALYYCATGRYTSLATTYGFDYWGQGTLVTVSS VL: EIVMTQSPATLSLSPGERATLSCRASQSVSSELAWYQQKPGQAPRLLIYGASSRATGIPDRFSGSGSGTDFTLTISRLEPEDFAVYYCQQYDNWPYTFGQGTKLEIK	3.75

More lines, now with the values ahead:

IC50, TF-1 cell proliferation [mg/L]	Binder
0.21	E35-scFv LY32F (scFv, V domains shown) VH: QMQLVQSGAEVKKPGASVKVSCKVSGYTLTELSIHWVRQAPGKGLEWMGGFDPEDGETIYAQKFQGRVTMTGDTSTDTAYLELSSLRSEDTALYYCATGRYTSLATTYGFDYWGQGTLVTVSS VL: EIVMTQSPATLSLSPGERATLSCRASQSVSSFLAWYQQKPGQAPRLLIYGASSRATGIPDRFSGSGSGTDFTLTISRLEPEDFAVYYCQQYDNWPYTFGQGTKLEIK
9.6	E35-scFv LY32K (scFv, V domains shown) VH: QMQLVQSGAEVKKPGASVKVSCKVSGYTLTELSIHWVRQAPGKGLEWMGGFDPEDGETIYAQKFQGRVTMTGDTSTDTAYLELSSLRSEDTALYYCATGRYTSLATTYGFDYWGQGTLVTVSS VL: EIVMTQSPATLSLSPGERATLSCRASQSVSSKLAWYQQKPGQAPRLLIYGASSRATGIPDRFSGSGSGTDFTLTISRLEPEDFAVYYCQQYDNWPYTFGQGTKLEIK
0.42	E35-scFv LY32M (scFv, V domains shown) VH: QMQLVQSGAEVKKPGASVKVSCKVSGYTLTELSIHWVRQAPGKGLEWMGGFDPEDGETIYAQKFQGRVTMTGDTSTDTAYLELSSLRSEDTALYYCATGRYTSLATTYGFDYWGQGTLVTVSS VL: EIVMTQSPATLSLSPGERATLSCRASQSVSSMLAWYQQKPGQAPRLLIYGASSRATGIPDRFSGSGSGTDFTLTISRLEPEDFAVYYCQQYDNWPYTFGQGTKLEIK
2.05	E35-scFv LY32N (scFv, V domains shown) VH: QMQLVQSGAEVKKPGASVKVSCKVSGYTLTELSIHWVRQAPGKGLEWMGGFDPEDGETIYAQKFQGRVTMTGDTSTDTAYLELSSLRSEDTALYYCATGRYTSLATTYGFDYWGQGTLVTVSS VL: EIVMTQSPATLSLSPGERATLSCRASQSVSSNLAWYQQKPGQAPRLLIYGASSRATGIPDRFSGSGSGTDFTLTISRLEPEDFAVYYCQQYDNWPYTFGQGTKLEIK
1.23	E35-scFv LY32V (scFv, V domains shown) VH: QMQLVQSGAEVKKPGASVKVSCKVSGYTLTELSIHWVRQAPGKGLEWMGGFDPEDGETIYAQKFQGRVTMTGDTSTDTAYLELSSLRSEDTALYYCATGRYTSLATTYGFDYWGQGTLVTVSS VL: EIVMTQSPATLSLSPGERATLSCRASQSVSSVLAWYQQKPGQAPRLLIYGASSRATGIPDRFSGSGSGTDFTLTISRLEPEDFAVYYCQQYDNWPYTFGQGTKLEIK
0.51	E35-scFv LY32T (scFv, V domains shown) VH: QMQLVQSGAEVKKPGASVKVSCKVSGYTLTELSIHWVRQAPGKGLEWMGGFDPEDGETIYAQKFQGRVTMTGDTSTDTAYLELSSLRSEDTALYYCATGRYTSLATTYGFDYWGQGTLVTVSS VL: EIVMTQSPATLSLSPGERATLSCRASQSVSSTLAWYQQKPGQAPRLLIYGASSRATGIPDRFSGSGSGTDFTLTISRLEPEDFAVYYCQQYDNWPYTFGQGTKLEIK
3.12	E35-scFv LY32R (scFv, V domains shown) VH: QMQLVQSGAEVKKPGASVKVSCKVSGYTLTELSIHWVRQAPGKGLEWMGGFDPEDGETIYAQKFQGRVTMTGDTSTDTAYLELSSLRSEDTALYYCATGRYTSLATTYGFDYWGQGTLVTVSS VL: EIVMTQSPATLSLSPGERATLSCRASQSVSSRLAWYQQKPGQAPRLLIYGASSRATGIPDRFSGSGSGTDFTLTISRLEPEDFAVYYCQQYDNWPYTFGQGTKLEIK
1.35	E35-scFv LY32G (scFv, V domains shown) VH: QMQLVQSGAEVKKPGASVKVSCKVSGYTLTELSIHWVRQAPGKGLEWMGGFDPEDGETIYAQKFQGRVTMTGDTSTDTAYLELSSLRSEDTALYYCATGRYTSLATTYGFDYWGQGTLVTVSS VL: EIVMTQSPATLSLSPGERATLSCRASQSVSSGLAWYQQKPGQAPRLLIYGASSRATGIPDRFSGSGSGTDFTLTISRLEPEDFAVYYCQQYDNWPYTFGQGTKLEIK
5.15	E35-scFv LY32P (scFv, V domains shown) VH: QMQLVQSGAEVKKPGASVKVSCKVSGYTLTELSIHWVRQAPGKGLEWMGGFDPEDGETIYAQKFQGRVTMTGDTSTDTAYLELSSLRSEDTALYYCATGRYTSLATTYGFDYWGQGTLVTVSS VL: EIVMTQSPATLSLSPGERATLSCRASQSVSSPLAWYQQKPGQAPRLLIYGASSRATGIPDRFSGSGSGTDFTLTISRLEPEDFAVYYCQQYDNWPYTFGQGTKLEIK
1.17	E35-scFv LY32W (scFv, V domains shown) VH: QMQLVQSGAEVKKPGASVKVSCKVSGYTLTELSIHWVRQAPGKGLEWMGGFDPEDGETIYAQKFQGRVTMTGDTSTDTAYLELSSLRSEDTALYYCATGRYTSLATTYGFDYWGQGTLVTVSS VL: EIVMTQSPATLSLSPGERATLSCRASQSVSSWLAWYQQKPGQAPRLLIYGASSRATGIPDRFSGSGSGTDFTLTISRLEPEDFAVYYCQQYDNWPYTFGQGTKLEIK
0.87	E35-scFv LY32Q (scFv, V domains shown) VH: QMQLVQSGAEVKKPGASVKVSCKVSGYTLTELSIHWVRQAPGKGLEWMGGFDPEDGETIYAQKFQGRVTMTGDTSTDTAYLELSSLRSEDTALYYCATGRYTSLATTYGFDYWGQGTLVTVSS VL: EIVMTQSPATLSLSPGERATLSCRASQSVSSQLAWYQQKPGQAPRLLIYGASSRATGIPDRFSGSGSGTDFTLTISRLEPEDFAVYYCQQYDNWPYTFGQGTKLEIK
